Each substance was assayed against recombinant human TNFα (RDI) (UniProt P01375).
Chain of recombinant human TNFα (RDI) (P01375 77-233): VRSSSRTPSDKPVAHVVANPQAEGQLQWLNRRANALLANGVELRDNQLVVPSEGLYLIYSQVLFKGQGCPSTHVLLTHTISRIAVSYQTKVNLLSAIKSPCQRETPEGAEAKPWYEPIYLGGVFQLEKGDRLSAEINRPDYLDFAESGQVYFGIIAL

Chain of Enterokinase (P98072 2-800): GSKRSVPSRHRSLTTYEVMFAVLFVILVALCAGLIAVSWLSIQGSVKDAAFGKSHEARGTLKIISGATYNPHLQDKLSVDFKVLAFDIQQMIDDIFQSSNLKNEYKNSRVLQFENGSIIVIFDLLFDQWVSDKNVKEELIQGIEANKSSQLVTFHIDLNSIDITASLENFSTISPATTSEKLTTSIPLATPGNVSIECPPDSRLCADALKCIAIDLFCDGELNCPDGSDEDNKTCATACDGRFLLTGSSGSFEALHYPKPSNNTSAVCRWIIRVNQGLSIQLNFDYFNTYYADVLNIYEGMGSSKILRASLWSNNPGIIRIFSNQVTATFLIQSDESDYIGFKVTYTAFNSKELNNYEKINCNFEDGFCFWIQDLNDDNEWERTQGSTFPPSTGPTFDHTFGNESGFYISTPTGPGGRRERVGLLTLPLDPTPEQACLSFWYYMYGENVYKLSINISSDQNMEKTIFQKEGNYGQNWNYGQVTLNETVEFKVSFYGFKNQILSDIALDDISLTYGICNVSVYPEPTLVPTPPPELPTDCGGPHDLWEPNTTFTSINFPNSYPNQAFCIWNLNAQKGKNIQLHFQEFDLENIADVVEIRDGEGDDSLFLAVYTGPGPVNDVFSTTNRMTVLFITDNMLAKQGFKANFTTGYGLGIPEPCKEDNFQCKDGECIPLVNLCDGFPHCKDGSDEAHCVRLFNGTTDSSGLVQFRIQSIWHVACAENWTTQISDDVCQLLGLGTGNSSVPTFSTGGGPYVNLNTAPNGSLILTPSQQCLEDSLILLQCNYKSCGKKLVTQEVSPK
Chain of Enterokinase (P98072 801-1035): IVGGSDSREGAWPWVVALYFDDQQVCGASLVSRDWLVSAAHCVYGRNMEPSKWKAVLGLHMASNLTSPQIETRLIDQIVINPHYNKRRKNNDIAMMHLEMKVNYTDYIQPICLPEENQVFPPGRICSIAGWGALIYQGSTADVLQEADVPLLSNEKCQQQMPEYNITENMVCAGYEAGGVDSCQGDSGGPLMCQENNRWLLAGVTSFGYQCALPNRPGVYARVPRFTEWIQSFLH

Substance | inactivation of TNFα bioactivity, L929 cytotoxicity bioassay after overnight digestion | proteolytic activity towards TNFα and effect in the L929 bioassay
Plasmin | Plasmin (column: Proteases that did not inactivate TNF) | 
Furin | Furin (column: Proteases that did not inactivate TNF) | 
Enterokinase | Enterokinase (column: Proteases that did not inactivate TNF) | enterokinase has no proteolytic activity towards TNFα and no effect in the L929 bioassay
MT5-MMP | MT5-MMP (column: Proteases that did not inactivate TNF) | 
MMP3 | MMP3 (column: Proteases that did not inactivate TNF) | 
ADAM 10 | ADAM 10 (column: Proteases that did not inactivate TNF) | 
Urokinase | Urokinase (column: Proteases that did not inactivate TNF) | 
Kallikrein5 | Kallikrein5 (column: Proteases that did not inactivate TNF) | 

From patent US20050074865
